Test results taken from IntAct's records for PubMed 25752543.

B1: Neuropilin-2 (Homo sapiens), O60462 (parent)
chain: MDMFPLTWVFLALYFSRHQVRGQPDPPCGGRLNSKDAGYITSPGYPQDYPSHQNCEWIVYAPEPNQKIVLNFNPHFEIEKHDCKYDFIEIRDGDSESADLLGKHCGNIAPPTIISSGSMLYIKFTSDYARQGAGFSLRYEIFKTGSEDCSKNFTSPNGTIESPGFPEKYPHNLDCTFTILAKPKMEIILQFLIFDLEHDPLQVGEGDCKYDWLDIWDGIPHVGPLIGKYCGTKTPSELRSSTGILSLTFHTDMAVAKDGFSARYYLVHQEPLENFQCNVPLGMESGRIANEQISASSTYSDGRWTPQQSRLHGDDNGWTPNLDSNKEYLQVDLRFLTMLTAIATQGAISRETQNGYYVKSYKLEVSTNGEDWMVYRHGKNHKVFQANNDATEVVLNKLHAPLLTRFVRIRPQTWHSGIALRLELFGCRVTDAPCSNMLGMLSGLIADSQISASSTQEYLWSPSAARLVSSRSGWFPRIPQAQPGEEWLQVDLGTPKTVKGVIIQGARGGDSITAVEARAFVRKFKVSYSLNGKDWEYIQDPRTQQPKLFEGNMHYDTPDIRRFDPIPAQYVRVYPERWSPAGIGMRLEVLGCDWTDSKPTVETLGPTVKSEETTTPYPTEEEATECGENCSFEDDKDLQLPSGFNCNFDFLEEPCGWMYDHAKWLRTTWASSSSPNDRTFPDDRNFLRLQSDSQREGQYARLISPPVHLPRSPVCMEFQYQATGGRGVALQVVREASQESKLLWVIREDQGGEWKHGRIILPSYDMEYQIVFEGVIGKGRSGEIAIDDIRISTDVPLENCMEPISAFAGENFKVDIPEIHEREGYEDEIDDEYEVDWSNSSSATSGSGAPSTDKEKSWLYTLDPILITIIAMSSLGVLLGATCAGLLLYCTCSYSGLSSRSCTTLENYNFELYDGLKHKVKMNHQKCCSEA
partner: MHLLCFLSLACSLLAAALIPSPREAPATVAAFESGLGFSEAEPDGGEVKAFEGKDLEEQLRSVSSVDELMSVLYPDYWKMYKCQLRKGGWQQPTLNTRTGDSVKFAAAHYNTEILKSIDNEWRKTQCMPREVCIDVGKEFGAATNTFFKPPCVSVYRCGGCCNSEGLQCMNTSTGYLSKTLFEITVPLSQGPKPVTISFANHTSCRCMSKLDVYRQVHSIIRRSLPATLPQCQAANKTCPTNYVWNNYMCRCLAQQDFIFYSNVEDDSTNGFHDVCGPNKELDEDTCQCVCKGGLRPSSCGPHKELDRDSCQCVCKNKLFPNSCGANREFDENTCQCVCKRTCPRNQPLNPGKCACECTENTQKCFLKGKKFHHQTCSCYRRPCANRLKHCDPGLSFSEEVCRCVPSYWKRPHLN
B2: Vascular endothelial growth factor C (Mus musculus), P97953-1 (parent)
chain: B1 partner
partner: B1 chain

Variants of: B1
Conditions: with Vegfc

Row | Variant | effect of a mutation on the interaction
1 | T319R | disrupting interaction strength

Variants of: B2
Conditions: with nrp2_human NRP2, O60462

Row | Variant | effect of a mutation on the interaction
2 | R223E | decreasing interaction strength
